Molecular target: PP2A regulatory subunit B56δ (human (endogenous in human HEK TER cells)) (UniProt Q14738)
Assay: anti-FLAG co-IP from HEK TER cells, immunoblot, densitometry; +++ >90%, ++ 50-90%, + <50%

PP2A regulatory subunit B56δ (human (endogenous in human HEK TER cells)), sequence (Q14738 whole entry, stated change not applied): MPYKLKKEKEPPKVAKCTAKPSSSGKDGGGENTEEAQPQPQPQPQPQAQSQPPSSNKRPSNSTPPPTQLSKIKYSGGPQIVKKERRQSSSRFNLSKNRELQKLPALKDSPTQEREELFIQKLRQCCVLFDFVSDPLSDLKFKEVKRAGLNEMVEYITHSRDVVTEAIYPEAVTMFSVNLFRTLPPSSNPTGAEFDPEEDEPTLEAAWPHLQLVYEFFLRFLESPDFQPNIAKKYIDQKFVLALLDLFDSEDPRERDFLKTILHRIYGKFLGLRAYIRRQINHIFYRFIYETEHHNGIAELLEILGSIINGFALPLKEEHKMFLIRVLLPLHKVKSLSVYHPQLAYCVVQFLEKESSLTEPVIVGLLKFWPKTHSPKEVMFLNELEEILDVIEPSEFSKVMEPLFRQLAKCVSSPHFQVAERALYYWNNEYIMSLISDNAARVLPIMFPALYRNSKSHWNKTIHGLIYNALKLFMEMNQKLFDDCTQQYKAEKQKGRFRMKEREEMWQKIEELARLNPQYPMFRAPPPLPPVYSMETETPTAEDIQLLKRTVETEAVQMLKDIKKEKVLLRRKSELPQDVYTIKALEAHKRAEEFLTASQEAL
cancer-derived FLAG-tagged PP2A Aβ mutant G8R, sequence (P30154 other isoform, or with tags, fused parts or gaps limits assumed, stated change not applied): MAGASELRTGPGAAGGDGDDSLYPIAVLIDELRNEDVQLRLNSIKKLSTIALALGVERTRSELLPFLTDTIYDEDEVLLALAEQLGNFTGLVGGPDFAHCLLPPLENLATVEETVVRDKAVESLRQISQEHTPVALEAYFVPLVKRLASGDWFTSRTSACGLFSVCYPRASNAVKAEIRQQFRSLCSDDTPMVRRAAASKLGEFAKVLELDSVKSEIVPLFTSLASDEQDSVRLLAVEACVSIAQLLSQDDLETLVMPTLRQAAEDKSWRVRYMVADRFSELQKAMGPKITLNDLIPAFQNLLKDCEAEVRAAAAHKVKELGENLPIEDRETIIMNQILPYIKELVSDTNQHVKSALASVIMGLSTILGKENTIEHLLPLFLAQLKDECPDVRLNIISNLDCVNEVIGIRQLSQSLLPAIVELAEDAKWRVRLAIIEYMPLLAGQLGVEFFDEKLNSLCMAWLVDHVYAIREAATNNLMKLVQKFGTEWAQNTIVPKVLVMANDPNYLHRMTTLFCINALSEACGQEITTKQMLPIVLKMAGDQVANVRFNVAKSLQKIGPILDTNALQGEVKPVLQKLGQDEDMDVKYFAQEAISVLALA
wild type (WT) FLAG epitope-tagged version of PP2A Aβ, sequence (P30154 whole entry): as the sequence (P30154 other isoform, or with tags, fused parts or gaps limits assumed, stated change not applied) above, with R8G counted along it

binding level (percent, co-immunoprecipitation densitometry) [%] | Substance
> 90 | cancer-derived FLAG-tagged PP2A Aβ mutant D504G (from UniProt P30154 1-601)
< 50 | cancer-derived FLAG-tagged PP2A Aβ mutant G8R (from UniProt P30154 1-601)
50 to 90 | cancer-derived FLAG-tagged PP2A Aβ mutant K343E (from UniProt P30154 1-601)
50 to 90 | cancer-derived FLAG-tagged PP2A Aβ mutant P65S (from UniProt P30154 1-601)
> 90 | wild type (WT) FLAG epitope-tagged version of PP2A Aβ (from UniProt P30154 1-601)

Molecular target: endogenous RalA (human) (UniProt P11233)
Sequence (P11233 1-203 limits assumed): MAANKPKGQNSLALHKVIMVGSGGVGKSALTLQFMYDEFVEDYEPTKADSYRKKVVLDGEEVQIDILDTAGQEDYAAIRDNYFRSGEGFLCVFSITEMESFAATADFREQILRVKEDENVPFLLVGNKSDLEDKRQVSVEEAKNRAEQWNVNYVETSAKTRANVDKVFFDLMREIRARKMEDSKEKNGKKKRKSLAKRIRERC
Assay: cell-based or functional assay

GTP-bound RalA levels (RalA activation assay, RalBP1 agarose pull-down) [fold] | Substance
4.5 | endogenous PP2A Aβ (from UniProt P30154 2-601)

Source: US20110306057A1
